From publication doi:10.1101/2020.04.15.042515 (bioRxiv, 2020)

Molecular target: T1, Smith-Magenis syndrome chromosome region, candidate 8 (SMCR8), wild type (human, UniProt Q8TEV9 1-937)
T1 sequence: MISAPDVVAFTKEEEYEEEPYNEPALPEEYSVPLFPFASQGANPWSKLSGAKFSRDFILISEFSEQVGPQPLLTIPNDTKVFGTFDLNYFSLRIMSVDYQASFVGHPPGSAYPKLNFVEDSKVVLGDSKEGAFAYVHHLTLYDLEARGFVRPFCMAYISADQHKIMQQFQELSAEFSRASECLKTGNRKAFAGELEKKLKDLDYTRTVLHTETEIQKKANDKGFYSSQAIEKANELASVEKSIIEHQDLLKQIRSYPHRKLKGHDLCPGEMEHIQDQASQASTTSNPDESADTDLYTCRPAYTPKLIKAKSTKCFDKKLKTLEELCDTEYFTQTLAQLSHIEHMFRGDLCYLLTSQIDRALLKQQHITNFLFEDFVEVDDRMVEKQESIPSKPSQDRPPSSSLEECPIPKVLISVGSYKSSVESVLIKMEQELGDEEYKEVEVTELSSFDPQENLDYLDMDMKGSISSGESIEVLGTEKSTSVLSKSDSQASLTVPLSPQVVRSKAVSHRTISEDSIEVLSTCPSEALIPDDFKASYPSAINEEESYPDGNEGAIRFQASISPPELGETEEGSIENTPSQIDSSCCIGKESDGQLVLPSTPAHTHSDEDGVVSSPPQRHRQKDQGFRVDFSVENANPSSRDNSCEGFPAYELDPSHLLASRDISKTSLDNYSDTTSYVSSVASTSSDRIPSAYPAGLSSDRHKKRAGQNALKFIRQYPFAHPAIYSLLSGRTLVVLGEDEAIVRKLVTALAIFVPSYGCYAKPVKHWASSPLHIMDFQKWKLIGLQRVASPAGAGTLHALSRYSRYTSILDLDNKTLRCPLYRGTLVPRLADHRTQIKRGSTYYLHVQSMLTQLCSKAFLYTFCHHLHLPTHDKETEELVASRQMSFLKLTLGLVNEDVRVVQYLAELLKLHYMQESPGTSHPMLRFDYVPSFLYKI
Assay: cryo-EM structure

B1: C9orf72, wild type, GST tag removed by TEV (in purified SCARF and L-SCARF) (natural protein)
chain: MSTLCPPPSPAVAKTEIALSGKSPLLAATFAYWDNILGPRVRHIWAPKTEQVLLSDGEITFLANHTLNGEILRNAESGAIDVKFFVLSEKGVIIVSLIFDGNWNGDRSTYGLSIILPQTELSFYLPLHRVCVDRLTHIIRKGRIWMHKERQENVQKIILEGTERMEDQGQSIIPMLTGEVIPVMELLSSMKSHSVPEEIDIADTVLNDDDIGDSCHEGFLLNAISSHLQTCGCSVVVGSSAEKVNKIVRTLCLFLTPAERKCSRLCEAESSFKYESGLFVQGLLKDSTGSFVLPFRQVMYAPYPTTHIDVDVNTVKQMPPCHEHIYNQRRYMRSELTAFWRATSEEDMAQDTIIYTDESFTPDLNIFQDVLHRDTLVKAFLDQVFQLKPGLSLRSTFLAQFLLVLHRKALTLIKYIEDDTQKGKKPFKSLRNLKIDLDLTAEGDLNIIMALAEKIKPGLHSFIFGRPFYTSVQERDVLMTF
binding result: binds

B2: WD repeat-containing protein 41 (WDR41), wild type, without a tag (natural protein)
chain: MLRWLIGGGREPQGLAEKSPLQTIGEEQTQNPYTELLVLKAHHDIVRFLVQLDDYRFASAGDDGIVVVWNAQTGEKLLELNGHTQKITAIITFPSLESCEEKNQLILTASADRTVIVWDGDTTRQVQRISCFQSTVKCLTVLQRLDVWLSGGNDLCVWNRKLDLLCKTSHLSDTGISALVEIPKNCVVAAVGKELIIFRLVAPTEGSLEWDILEVKRLLDHQDNILSLINVNDLSFVTGSHVGELIIWDALDWTMQAYERNFWDPSPQLDTQQEIKLCQKSNDISIHHFTCDEENVFAAVGRGLYVYSLQMKRVIACQKTAHDSNVLHVARLPNRQLISCSEDGSVRIWELREKQQLAAEPVPTGFFNMWGFGRVSKQASQPVKKQQENATSCSLELIGDLIGHSSSVEMFLYFEDHGLVTCSADHLIILWKNGERESGLRSLRLFQKLEENGDLYLAV
binding result: binds
